Like-named read-outs stand apart in the source and are kept apart here. Blank lines part the entries; values can stand above or below the binder they belong to.
Columns and labels:
[1] = target: T1, cTnI质控品重组抗原 (human, UniProt P19429 1-210, limits assumed); assay: BLI, antibody captured on AMC sensor, cTnI recombinant protein in solution
T1 construct: 人cTnI蛋白); also called cTnI质控品重组蛋白(公司自产重组抗原); 心肌肌钙蛋白I

[2] = target: T1, cTnI质控品重组抗原; assay: as above; remark: listed apart in the source

T1 sequence (P19429 whole entry): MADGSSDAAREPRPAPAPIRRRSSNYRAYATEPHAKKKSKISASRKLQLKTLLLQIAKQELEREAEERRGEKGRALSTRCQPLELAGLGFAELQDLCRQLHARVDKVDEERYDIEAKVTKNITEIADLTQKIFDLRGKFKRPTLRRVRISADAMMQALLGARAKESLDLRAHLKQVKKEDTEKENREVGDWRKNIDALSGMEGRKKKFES

Kd [1]: 47.8 nM
koff [1]: 0.000308 s⁻¹
kon [1]: 6450 M⁻¹ s⁻¹
B1: WT 1-22 (antibody, V domains shown)
VH: EVQLQQSGPELVKPGASVKMSCKASGYSFTLYVLHWVKQKPGQGLEWIGYIYPYIDGTRYNEKFKGKATLTVDKSSSTAFMELSSLTSEDSAVYYCARTGYGNYGLAWLAYWGQGTLVTVSA
VL: QAVVIQESALTTSPGETVTLTCRSSSGAVTTSQYANWVQEKPDHLFTGLIGGSNNRVPGVPARFSGSLIGDKAALTITGAQTEDEAIYFCAIVYSNNWVFGGGTKLTVLG

Kd [1]: 33.5 nM
koff [1]: 0.00018 s⁻¹
kon [1]: 5360 M⁻¹ s⁻¹
Kd [2]: 33.5 nM
koff [2]: 0.00018 s⁻¹
kon [2]: 5360 M⁻¹ s⁻¹
B2: Anti-cTnI 3C7 重组抗体 (WT) (antibody, V domains shown)
VH: EVKLDETGGGLVQPGRPMKLSCIASGATFSGYWMQWVRQSPEKGLEWVAQLRNGPYDFDTFYSDSVKDRFTISRDDSKSVYLQMNNLRAEDMGIYYCTPHFVHWGQGTLVTVSA
VL: DIVMTQSPSSLSVSEGEKVTLRCKSSNSLFNSGNQQNYLAWYQQKPGQPPKLLIYGPSTREFGVPDRFTGSGSGTDFTLISNVQEDLAVYYCQTDRTSAYTFGGGTKLEIK

Kd [1]: 80.6 nM
koff [1]: 0.000533 s⁻¹
kon [1]: 6610 M⁻¹ s⁻¹
B3: WT 1-5 (antibody, V domains shown)
VH: QVQLQQSGTELAKPGASVKFSCKASDYTFSSYWMYWIKQRPGQGLEWIGYLNPSTGHTEYNQKFKDKATLTADKSSSTAYMQLNSLTSEDSAVYYCARKYWGPFAMDYWGQGTSVTVSS
VL: EIFLTQSPAIMSASPGEKVTMTCSASSSVSYAHWYQQKSGTSPKRWIYDSSKIASGIPVRFSGSGSGTSYSLTISSMEAEDAATYYCQNWSTNPYTFGGGTKLEIKR

Source: patent CN111018982A (DONGGUAN PENGZHI BIOTECHNOLOGY CO LTD, dated 2020)
